The target of experiment [1] is lysate of the colon cancer cell line colon 137 (COU-1 antigen positive). Kind of experiment: ELISA on coated colon 137 lysate.
The target of experiment [2] is K8(1-124)/K18(1-124) heterotypic complex (human) (UniProt P05787). Kind of experiment: SPR (BIAcore), complex immobilized, COU-1 injected.
Experiment [3] addresses K8(1-124)/intact K18 heterotypic complex (human) (UniProt P05787). Description: SPR (BIAcore), complex immobilized, COU-1 injected.

B1: human monoclonal IgM antibody COU-1 (antibody, V domains shown)
VH: GAEVKKPGASVKVSCKASDYTFSSYYMHWVRQAPGQGLEWMGIINPSGGSTSYAQKFQGRVTMTRDTSTNTVYMELSSLRSEDTAVYYCARDQVVVAATLSNYGMDVWGQGTTVTVSS
VL: ELTQSPGTLSLSPGERATLSCRASQSVSSSYLAWYQQKPGQAPRLLIYDASNRATGIPARFSGSGSGTDFTLTISSLEPEDFAVYYCQQGTNWGIAFGQGTRLDIKR
On to B1, for which, in experiment [1], the concentration needed for saturation came out at 1 µg/mL. Further, in experiment [2], the Ka stood at 9.5e+08 M⁻¹, the Kd was found to be 1.05 nM, the koff was found to be 0.0003 s⁻¹ and the on-rate (kon) was 280000 M⁻¹ s⁻¹. Moreover, in experiment [3], the Ka is 1.4e+09 M⁻¹, the dissociation constant Kd came out at 0.71 nM, the off-rate constant (koff) was found to be 0.00012 s⁻¹ and the kon came to 170000 M⁻¹ s⁻¹.

B2: recombinant B9165 Fab (Fab, V domains shown)
VH: B1 VH
VL: B1 VL
For the molecule B2, the concentration needed for saturation in experiment [1] was determined as 20 µg/mL.
